These results are taken from the RNAGym collection of RNA variant scans (doi:10.7554/elife.80360).

First the molecules themselves.
B1: HDV Ribozyme (parent)
chain: GGCCGGCAUGGUCCCAGCCUCCUCGCUGGCGCCGGCUGGGCAACAUUCCGAGGGGACCGUCCCCUCGGUAAUGGCGAAUGGGACCCA

In the data set the parent is B1. Kind of data set: self-cleavage, relative activity (ratio to wild type); higher = more cleavage; co-transcriptional.
For the variant GGCCGGCAUGGUCCCAGCCUCCUCGCUGGCGCCGGCUGGGCAACAGUGCGAGGGGACCGUCCCCUCGGUAAUGGCGAAUGGGACCCA, the self-cleavage stood at 0.475.

Regarding GGCCGGCAUGGUCCCAGCCUCCUCGCUGGCGCCGGCUGGGCAACAGUCCGAGGGGACCGUCGCCUCGGUAAUGGCGAAUGGGACCCA, the self-cleavage worked out at 0.0755.

GGCCGGCAUGGUCCCAGCCUCCUCGCUGGCGCCGGCUGGGCAACACUCCGAGGGGACCGUCCCCUCGGUAAUGGCUAAUGGGACCCA: the self-cleavage was determined as 1.23.

GGCCGGCAUGGUCCCAGCCUCCUCGCUGGCGCCGGCUGGGCAACACUCCGAGGGGACCGUCCCCUCGCUAAUGGCGAAUGGGACCCA: the self-cleavage amounted to 0.739.

With GGCCGGCAUGGUCCCAGCCUCCUCGCUGGCGCCGGCUGGGCAACACCCCGAGGGGACCGUCCCCUCGGUAAUGGCGAAUGGGACCCA, the self-cleavage came to 0.743.

As for GGCCGGCAUGGUCCCAGCCUCCUCGCUGGCGCCGGCUGGGCAACACACCGAGGGGACCGUCCCCUCGGUAAUGGCGAAUGGGACCCA, the self-cleavage is 1.08.

Regarding GGCCGGCAUGGUCCCAGCCUCCUCGCUGGCGCCGGCUGGGCAACAGUCCGAGGGGAGCGUCCCCUCGGUAAUGGCGAAUGGGACCCA, the self-cleavage worked out at 0.804.

For GGCCGGCAUGGUCCCAGCCUCCUCGCUGGCGCCGGCUGGGCAACACUCCGAGGGGACCGUCCCCUCGGUAAUGGCGAAUGGGACUCA, the self-cleavage worked out at 0.615.

In the case of GGCCGGCAUGGUCCCAGCCUCCUCGCUGGCGCCGGCUGGGCAACACUCCGAGGGGACCGUCCCCUCGGUAAUGGCGAAUGGGACGCA, the self-cleavage was 0.675.

With GGCCGGCAUGGUCCCAGCCUCCUCGCUGGCGCCGGCUGGGCAACACUCCGAGGGGACCGUCCCCUCGGUAAUGGCGAAUGGGACACA, the self-cleavage is 0.617.

Turning to GGCCGGCAUGGUCCCAGCCUCCUCGCUGGCGCCGGCUGGGCAACACUCCGAGGGGACCGUCCCCUCGGUAAUGGCGAAAGGGACCCA, the self-cleavage amounted to 0.798.

In the case of GGCCGGCAUGGUCCCAGCCUCCUCGCUGGCGCCGGCUGGGCAACAGUCCGAGGGGACCGUCCCCUCGGUAAGGGCGAAUGGGACCCA, the self-cleavage was found to be 0.623.

Regarding GGCCGGCAUGGUCCCAGCCUCCUCGCUGGCGCCGGCUGGGCAACACUCCUAGGGGACCGUCCCCUCGGUAAUGGCGAAUGGGACCCA, the self-cleavage came to 0.779.

Regarding GGCCGGCAUGGUCCCAGCCUCCUCGCUGGCGCCGGCUGGGCAACAGUCCGAGGGGACCGUCCCCUCGGUAAUGGAGAAUGGGACCCA, the self-cleavage turned out to be 0.208.

Take GGCCGGCAUGGUCCCAGCCUCCUCGCUGGCGCCGGCUGGGCAACAGUCCGAGGGGACCGUCCCCUCGGUAAUGGGGAAUGGGACCCA: the self-cleavage is 0.0639.

For GGCCGGCAUGGUCCCAGCCUCCUCGCUGGCGCCGGCUGGGCAACAGUCCGAGGGGACCGUCCCCUCGGUAAUGGCGAACGGGACCCA, the self-cleavage came to 0.0519.

Consider GGCCGGCAUGGUCCCAGCCUCCUCGCUGGCGCCGGCUGGGCAACAGUCCGAGGGGACCGUCCCCUCGGUAAUGGCGAAGGGGACCCA, for which the self-cleavage was 0.787.

In the case of GGCCGGCAUGGUCCCAGCCUCCUCGCUGGCGCCGGCUGGGCAACACUCCGAGGGUACCGUCCCCUCGGUAAUGGCGAAUGGGACCCA, the self-cleavage amounted to 0.831.

Regarding GGCCGGCAUGGUCCCAGCCUCCUCGCUGGCGCCGGCUGGGCAACAGUCCGAGGGGACCGUCCCCUCAGUAAUGGCGAAUGGGACCCA, the self-cleavage is 0.527.

For GGCCGGCAUGGUCCCAGCCUCCUCGCUGGCGCCGGCUGGGCAACACUCCGAGUGGACCGUCCCCUCGGUAAUGGCGAAUGGGACCCA, the self-cleavage came out at 0.831.

As for GGCCGGCAUGGUCCCAGCCUCCUCGCUGGCGCCGGCUGGGCAACAGUCCGAGGGGACAGUCCCCUCGGUAAUGGCGAAUGGGACCCA, the self-cleavage amounted to 0.639.

GGCCGGCAUGGUCCCAGCCUCCUCGCUGGCGCCGGCUGGGCAACAGUCCGAGGGGACUGUCCCCUCGGUAAUGGCGAAUGGGACCCA: the self-cleavage came to 0.532.

GGCCGGCAUGGUCCCAGCCUCCUCGCUGGCGCCGGCUGGGCAACACUCCGAGGGGACCGUCCCCUCGGUAAUGCCGAAUGGGACCCA: the self-cleavage is 0.277.

GGCCGGCAUGGUCCCAGCCUCCUCGCUGGCGCCGGCUGGGCAACAGUCCGAGGGGACCCUCCCCUCGGUAAUGGCGAAUGGGACCCA: the self-cleavage worked out at 0.831.

Take GGCCGGCAUGGUCCCAGCCUCCUCGCUGGCGCCGGCUGGGCAACAGUCCGAGGGUACCGUCCCCUCGGUAAUGGCGAAUGGGACCCA: the self-cleavage came out at 0.569.

Regarding GGCCGGCAUGGUCCCAGCCUCCUCGCUGGCGCCGGCUGGGCAACACUCCGAGGGGACCGUCCCAUCGGUAAUGGCGAAUGGGACCCA, the self-cleavage worked out at 0.569.

With GGCCGGCAUGGUCCCAGCCUCCUCGCUGGCGCCGGCUGGGCAACACUCCGAGGGGACCGUCCCCUGGGUAAUGGCGAAUGGGACCCA, the self-cleavage was determined as 0.594.

Consider GGCCGGCAUGGUCCCAGCCUCCUCGCUGGCGCCGGCUGGGCAACAGUCCGAGGGGACCGUCCCCUCGGUAAUGGCGAAUAGGACCCA, for which the self-cleavage stood at 0.0811.

As to GGCCGGCAUGGUCCCAGCCUCCUCGCUGGCGCCGGCUGGGCAACACUCCGAGGGGACCGUCCCCUCGGUAAUAGCGAAUGGGACCCA, the self-cleavage was 0.475.

For GGCCGGCAUGGUCCCAGCCUCCUCGCUGGCGCCGGCUGGGCAACACUCCGAGGGGACCGUCCCCUCGGUAAUUGCGAAUGGGACCCA, the self-cleavage came to 0.151.

For GGCCGGCAUGGUCCCAGCCUCCUCGCUGGCGCCGGCUGGGCAACAUACCGAGGGGACCGUACCCUCGGUAAUGGCGAAUGGGACCCA, the self-cleavage is 0.886.

Take GGCCGGCAUGGUCCCAGCCUCCUCGCUGGCGCCGGCUGGGCAACACUCCGAGGGGACCGUCCCCUCGGUAAUGGCGAAUGUGACCCA: the self-cleavage is 0.302.

For the variant GGCCGGCAUGGUCCCAGCCUCCUCGCUGGCGCCGGCUGGGCAACACUCCGAGGGGACCGUCCUCUCGGUAAUGGCGAAUGGGACCCA, the self-cleavage was 0.671.

In the case of GGCCGGCAUGGUCCCAGCCUCCUCGCUGGCGCCGGCUGGGCAACAGUCCGAGGGGGCCGUCCCCUCGGUAAUGGCGAAUGGGACCCA, the self-cleavage was 0.499.

Consider GGCCGGCAUGGUCCCAGCCUCCUCGCUGGCGCCGGCUGGGCAACAGUCCGAGGGGUCCGUCCCCUCGGUAAUGGCGAAUGGGACCCA, for which the self-cleavage stood at 0.917.

With GGCCGGCAUGGUCCCAGCCUCCUCGCUGGCGCCGGCUGGGCAACACUCCGAGGAGACCGUCCCCUCGGUAAUGGCGAAUGGGACCCA, the self-cleavage came to 0.519.

As to GGCCGGCAUGGUCCCAGCCUCCUCGCUGGCGCCGGCUGGGCAACACUCCGAGGGGACCGUCCCCACGGUAAUGGCGAAUGGGACCCA, the self-cleavage amounted to 0.853.

In the case of GGCCGGCAUGGUCCCAGCCUCCUCGCUGGCGCCGGCUGGGCAACACUCCGAAGGGACCGUCCCCUCGGUAAUGGCGAAUGGGACCCA, the self-cleavage amounted to 1.03.

As for GGCCGGCAUGGUCCCAGCCUCCUCGCUGGCGCCGGCUGGGCAACAGUCCGAGGGGACCGUCCCCUCGGUAAUGGCGAAUGGGACCCC, the self-cleavage was 0.966.

For the variant GGCCGGCAUGGUCCCAGCCUCCUCGCUGGCGCCGGCUGGGCAACAGUCCGAGGGGACCGUCCCCUCGGUAAUGGCGAAUGGGACCCU, the self-cleavage turned out to be 0.67.

With GGCCGGCAUGGUCCCAGCCUCCUCGCUGGCGCCGGCUGGGCAACAGUCCGAAGGGACCGUCCCCUCGGUAAUGGCGAAUGGGACCCA, the self-cleavage turned out to be 0.297.

As to GGCCGGCAUGGUCCCAGCCUCCUCGCUGGCGCCGGCUGGGCAACAUACCGAGGGGACCGUCCCCUCGGUAGUGGCGAAUGGGACCCA, the self-cleavage stood at 1.03.

On to GGCCGGCAUGGUCCCAGCCUCCUCGCUGGCGCCGGCUGGGCAACAGUCCGAGGGGACCGUCCCCUCGGUAAUGUCGAAUGGGACCCA, for which the self-cleavage came to 0.529.

For the variant GGCCGGCAUGGUCCCAGCCUCCUCGCUGGCGCCGGCUGGGCAACAGUCCGAGGGGACCGUCCCCUCGGUAAUCGCGAAUGGGACCCA, the self-cleavage was 0.499.

For the variant GGCCGGCAUGGUCCCAGCCUCCUCGCUGGCGCCGGCUGGGCAACAGUCCGUGGGGACCGUCCCCUCGGUAAUGGCGAAUGGGACCCA, the self-cleavage was determined as 0.45.

In the case of GGCCGGCAUGGUCCCAGCCUCCUCGCUGGCGCCGGCUGGGCAACAGUCCGAGGGGACCGUCCCCUCGGUAAUGGCGAAUGGGGCCCA, the self-cleavage came out at 0.746.

In the case of GGCCGGCAUGGUCCCAGCCUCCUCGCUGGCGCCGGCUGGGCAACAUACCGAGGGGGCCGUCCCCUCGGUAAUGGCGAAUGGGACCCA, the self-cleavage was determined as 0.965.

For GGCCGGCAUGGUCCCAGCCUCCUCGCUGGCGCCGGCUGGGCAACAGUCCGAGGGGACCGUCCCCUCGGCAAUGGCGAAUGGGACCCA, the self-cleavage amounted to 0.582.

As to GGCCGGCAUGGUCCCAGCCUCCUCGCUGGCGCCGGCUGGGCAACAUAACGAGGGGACCGUCCCCUCGGUAAUGGCGAAUGGGACCCA, the self-cleavage came to 0.973.

For the variant GGCCGGCAUGGUCCCAGCCUCCUCGCUGGCGCCGGCUGGGCAACAGUCCGAGGGGACCGUCCCCUCGGUAAUGGCGAAUGGAACCCA, the self-cleavage turned out to be 0.161.

On to GGCCGGCAUGGUCCCAGCCUCCUCGCUGGCGCCGGCUGGGCAACACUCCGAGGGGACCGUCCCCUCGGAAAUGGCGAAUGGGACCCA, for which the self-cleavage worked out at 0.918.

Consider GGCCGGCAUGGUCCCAGCCUCCUCGCUGGCGCCGGCUGGGCAACACUCCGAGGGGACCGUCCCCUCGGGAAUGGCGAAUGGGACCCA, for which the self-cleavage came out at 1.08.

GGCCGGCAUGGUCCCAGCCUCCUCGCUGGCGCCGGCUGGGCAACAGUCCGAGGGGACCGUCCCCCCGGUAAUGGCGAAUGGGACCCA: the self-cleavage was determined as 0.615.

For the variant GGCCGGCAUGGUCCCAGCCUCCUCGCUGGCGCCGGCUGGGCAACAUACUGAGGGGACCGUCCCCUCGGUAAUGGCGAAUGGGACCCA, the self-cleavage came out at 0.972.

GGCCGGCAUGGUCCCAGCCUCCUCGCUGGCGCCGGCUGGGCAACAUACCGAGGGGAUCGUCCCCUCGGUAAUGGCGAAUGGGACCCA: the self-cleavage is 0.944.

For GGCCGGCAUGGUCCCAGCCUCCUCGCUGGCGCCGGCUGGGCAACAGUCCGAGAGGACCGUCCCCUCGGUAAUGGCGAAUGGGACCCA, the self-cleavage stood at 0.527.

In the case of GGCCGGCAUGGUCCCAGCCUCCUCGCUGGCGCCGGCUGGGCAACAGUCGGAGGGGACCGUCCCCUCGGUAAUGGCGAAUGGGACCCA, the self-cleavage came out at 0.465.

For GGCCGGCAUGGUCCCAGCCUCCUCGCUGGCGCCGGCUGGGCAACAGUCUGAGGGGACCGUCCCCUCGGUAAUGGCGAAUGGGACCCA, the self-cleavage came out at 0.8.

As to GGCCGGCAUGGUCCCAGCCUCCUCGCUGGCGCCGGCUGGGCAACACUCCGAGGGGACCGCCCCCUCGGUAAUGGCGAAUGGGACCCA, the self-cleavage was found to be 0.772.

On to GGCCGGCAUGGUCCCAGCCUCCUCGCUGGCGCCGGCUGGGCAACAGUCCGAGGGGACCGUCCCCUCGAUAAUGGCGAAUGGGACCCA, for which the self-cleavage was found to be 0.608.

Consider GGCCGGCAUGGUCCCAGCCUCCUCGCUGGCGCCGGCUGGGCAACACUCCGAGGGGACCGUCCCCUCAGUAAUGGCGAAUGGGACCCA, for which the self-cleavage was determined as 0.671.

As to GGCCGGCAUGGUCCCAGCCUCCUCGCUGGCGCCGGCUGGGCAACAUACCGAGGGGACCGUCCCCUCGGUAAUGGCGGAUGGGACCCA, the self-cleavage was 0.831.

Consider GGCCGGCAUGGUCCCAGCCUCCUCGCUGGCGCCGGCUGGGCAACACUCCGAGGGGACCGUCCCCUCGGUAAUGGCGAAUGGGACCUA, for which the self-cleavage is 0.697.

On to GGCCGGCAUGGUCCCAGCCUCCUCGCUGGCGCCGGCUGGGCAACAGUCCGAGGGGACCGUCCCCUCGGUAAUGGCGAGUGGGACCCA, for which the self-cleavage stood at 0.443.
